“And” between values parts separate entries of the source, which are not always exact repeats. Identical values can stand only once.
Key:
[1] = target: T1, MCSP antigen, amino acids 1553 to 2184 of matured MCSP with C-terminal avi-tag and His-tag, biotinylated (Homo sapiens (Human), UniProt Q6UVK1 1582-2213, limits assumed, biotin on the avi-tag); experiment: ELISA, supernatant on biotinylated antigen
T1 construct: also called recombinant MCSP
T1 sequence: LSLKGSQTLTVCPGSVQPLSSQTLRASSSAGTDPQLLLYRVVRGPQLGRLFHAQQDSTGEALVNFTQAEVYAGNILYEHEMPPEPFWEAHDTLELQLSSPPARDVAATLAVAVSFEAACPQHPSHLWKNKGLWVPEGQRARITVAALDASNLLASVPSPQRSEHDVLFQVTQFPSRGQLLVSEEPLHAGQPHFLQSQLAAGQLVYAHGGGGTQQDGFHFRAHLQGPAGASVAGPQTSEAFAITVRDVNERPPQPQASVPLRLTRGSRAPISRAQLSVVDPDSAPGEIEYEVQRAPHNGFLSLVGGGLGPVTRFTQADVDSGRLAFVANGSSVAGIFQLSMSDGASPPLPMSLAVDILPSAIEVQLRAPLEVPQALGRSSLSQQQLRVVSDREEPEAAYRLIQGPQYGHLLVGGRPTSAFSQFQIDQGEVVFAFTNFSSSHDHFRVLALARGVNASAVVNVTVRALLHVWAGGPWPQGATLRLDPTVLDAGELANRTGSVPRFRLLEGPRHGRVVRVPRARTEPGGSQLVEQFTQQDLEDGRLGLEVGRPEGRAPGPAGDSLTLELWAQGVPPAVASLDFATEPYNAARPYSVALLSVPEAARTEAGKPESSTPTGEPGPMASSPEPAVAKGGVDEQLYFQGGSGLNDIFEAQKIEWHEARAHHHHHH

[2] = target: T2, full-length human CD28 with N-terminal SNAP tag on transfected Hek293 cells (human, UniProt P10747 19-220, SNAP tag labelled with terbium); experiment: FRET competition, unlabelled against d2-TGN1412 on CD28-SNAP cells; 95% CI in brackets
T2 construct: whole, on cells; also called hu CD28-SNAP

[3] = target: T2, full-length human CD28 with N-terminal …; experiment: FRET competition on cells with terbium-labelled hu CD28-SNAP; competitor d2-labelled TGN1412 (0.15 nM), unlabelled TGN1412 IgG titrated
[4] = target: T3, murine LAG3-Fc antigen (R&D Systems, 3328-L3-050) (murine, UniProt Q61790 24-442); experiment: ELISA, murine LAG3-Fc
T3 construct: Bought
T3 sequence (looked up): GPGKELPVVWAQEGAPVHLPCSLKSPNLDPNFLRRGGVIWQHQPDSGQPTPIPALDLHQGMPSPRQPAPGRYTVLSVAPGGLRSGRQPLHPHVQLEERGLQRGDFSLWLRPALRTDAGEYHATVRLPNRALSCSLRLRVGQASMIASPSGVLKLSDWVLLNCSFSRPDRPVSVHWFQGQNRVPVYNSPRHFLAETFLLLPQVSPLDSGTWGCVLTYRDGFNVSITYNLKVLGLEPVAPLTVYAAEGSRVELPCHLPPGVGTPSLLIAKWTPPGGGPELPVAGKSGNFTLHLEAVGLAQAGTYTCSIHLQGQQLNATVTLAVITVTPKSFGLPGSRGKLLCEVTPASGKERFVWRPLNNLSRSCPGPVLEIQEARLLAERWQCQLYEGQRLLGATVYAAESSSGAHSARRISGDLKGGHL

[5] = target: T4, human LAG3 on recombinant CHO cells (human, UniProt P18627 23-525); experiment: cell ELISA, CHO-LAG3
T4 construct: whole, on cells; also called Lag3 cells
T4 sequence (looked up): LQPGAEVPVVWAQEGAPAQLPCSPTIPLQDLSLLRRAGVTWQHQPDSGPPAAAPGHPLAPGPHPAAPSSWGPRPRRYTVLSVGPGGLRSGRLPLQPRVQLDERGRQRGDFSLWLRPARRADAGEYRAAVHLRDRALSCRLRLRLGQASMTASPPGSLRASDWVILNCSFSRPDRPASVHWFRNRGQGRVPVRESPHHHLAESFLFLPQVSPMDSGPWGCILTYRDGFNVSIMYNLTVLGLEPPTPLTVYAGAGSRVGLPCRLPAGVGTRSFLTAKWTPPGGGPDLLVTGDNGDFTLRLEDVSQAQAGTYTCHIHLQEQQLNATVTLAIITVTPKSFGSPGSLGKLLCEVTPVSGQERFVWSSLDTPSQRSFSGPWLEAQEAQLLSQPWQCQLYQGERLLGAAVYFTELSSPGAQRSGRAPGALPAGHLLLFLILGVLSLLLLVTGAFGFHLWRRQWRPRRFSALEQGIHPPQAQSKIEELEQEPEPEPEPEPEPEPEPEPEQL

[6] = target: T5, recombinant human LAG3 Fc Chimera Protein (R&D Systems, 2319-L3) (human, UniProt P18627 23-450); experiment: ELISA, coated LAG3 Fc
T5 construct: Bought
T5 sequence (looked up): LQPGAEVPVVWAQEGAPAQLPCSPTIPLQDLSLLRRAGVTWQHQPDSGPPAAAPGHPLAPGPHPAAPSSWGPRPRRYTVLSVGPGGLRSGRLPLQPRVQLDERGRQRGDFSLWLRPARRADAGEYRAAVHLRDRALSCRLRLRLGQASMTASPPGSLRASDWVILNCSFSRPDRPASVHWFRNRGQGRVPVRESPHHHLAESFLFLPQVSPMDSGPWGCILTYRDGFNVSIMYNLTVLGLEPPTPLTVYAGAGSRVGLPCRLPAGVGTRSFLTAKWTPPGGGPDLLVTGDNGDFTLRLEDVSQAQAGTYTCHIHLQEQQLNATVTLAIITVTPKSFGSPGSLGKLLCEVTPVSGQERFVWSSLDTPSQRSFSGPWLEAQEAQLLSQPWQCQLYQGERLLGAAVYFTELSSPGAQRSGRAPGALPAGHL

[7] = target: T6, soluble human Lag3-IgG1-Fc with biotinylated C-terminal Avi-tag (human, biotin on the Avi-tag); experiment: A375 MHCII competition ELISA
T6 construct: Lag3 ECD, IEGRMD linker, IgG1 Fc, Avi-tag; also called LAG3-Fc-avi; biotinylated LAG3-Fc

[8] = target: T5, recombinant human LAG3 Fc Chimera …; experiment: SPR, captured aVH-Fc, LAG3 Fc analyte
[9] = target: T6, soluble human Lag3-IgG1-Fc with …; experiment: A375 MHCII competition ELISA, 3 ug/ml
[10] = target: T5, recombinant human LAG3 Fc Chimera …; experiment: SPR, captured aVH-Fc, LAG3 Fc analyte; poor fit

B1: SEQ ID NO 61 (VHH)
VHH: EVQLVESGGGLVQPGGSLRLSCAASSFNIKDTYIGWVRRAPGKGTELVAGIYCEAGITRYADSVKGRFTISCDTSKNTAYLQMNSLRAEDTAVYYCAGKGIGNYFDYWGQGTTVTVSS
notes: also called MCSP-specific aVH
B1: binds [1].

B2: SEQ ID NO 59 (VHH)
VHH: EVQLVESGGGLVQPGGSLRLSCAASSFNIKDTYIGWVRRAPGKGTELVADIYCSEGSTRYADSVKGRFTISCDTSKNTAYLQMNSLRAEDTAVYYCAAVSDYVVFYYWGQGTTVTVSS
notes: also called MCSP-specific aVH
B2: binds [1].

B3: TGN1412 IgG (antibody, V domains shown)
VH: QVQLVQSGAEVKKPGASVKVSCKASGYTFTSYYIHWVRQAPGQGLEWIGCIYPGNVNTNYNEKFKDRATLTVDTSISTAYMELSRLRSDDTAVYFCTRSHYGLDWNFDVWGQGTTVTVSS
VL: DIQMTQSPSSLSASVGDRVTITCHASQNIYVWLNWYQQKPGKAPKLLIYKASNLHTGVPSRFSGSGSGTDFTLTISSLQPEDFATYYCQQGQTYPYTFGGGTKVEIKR
For B3, the Ki [2] was 0.28 nM and the “IC50 (read off the curve)” value [3] was ~0.6 nM.

B4: P11A2 aVH-Fc, bivalent (PG-LALA) (Fc fusion)
heavy: EVQLVESGGGLVQPGGSLRLSCAASSFNIKDTYIGWVRRAPGKGTELVAEIACHEGTTRYADSVKGRFTISCDTSKNTAYLQMNSLRAEDTAVYYCANTEYDDIFDYWGQGTTVTVSSGGGGSGGGGSDKTHTCPPCPAPEAAGGPSVFLFPPKPKDTLMISRTPEVTCVVVDVSHEDPEVKFNWYVDGVEVHNAKTKPREEQYNSTYRVVSVLTVLHQDWLNGKEYKCKVSNKALGAPIEKTISKAKGQPREPQVYTLPPSRDELTKNQVSLTCLVKGFYPSDIAVEWESNGQPENNYKTTPPVLDSDGSFFLYSKLTVDKSRWQQGNVFSCSVMHEALHNHYTQKSLSLSPGK
In the case of B4, the binding result [4] is reported as “no binding”, the EC50 [5] is reported as 0.0169 µg/mL and 0.2 nM and the OD max [5] is reported as 1.2. For the same binder, the OD max [6] was 1.3, the IC50 [7] was 0.0903 µg/mL and 1.2 nM and the t½ [8] was 2.4 min. For the same binder, the “% Inhibition” value [9] was 92.4% and the koff [10] was 0.0048 s⁻¹.

From US20260070940A1 (Hoffmann-La Roche, published 2026)
